From paper doi:10.1101/2022.11.18.516900v2

Tests used:
purified protein [1] = substrate: NC(=O)C1=CN([C@@H]2O[C@H](COP(=O)(O)OP(=O)(O)OC[C@H]3O[C@@H](n4cnc5c(N)ncnc54)[C@H](O)[C@@H]3O)[C@@H](O)[C@H]2O)C=CC1; assay: purified protein; conditions: 300 μM methylene-H4F, 100 mM Mops/NaOH pH 7.0, 40 °C, under N2
purified protein [2] = substrate: Nc1nc2c(c(=O)[nH]1)N1CN(c3ccc(C(=O)N[C@@H](CCC(=O)O)C(=O)O)cc3)C[C@H]1CN2; assay: purified protein; conditions: 100 μM NADH, 100 mM Mops/NaOH pH 7.0, 40 °C, under N2

B1: hMfr (Mycolicibacterium hassiacum DSM 44199) (protein)
chain: MTLNTIALELVPPNSDGPDGGREQAVEDARKVLRCAAETGLAGRIGHVMIPGMIEEDPDRPIPMKPKMDVLDFWTIIRPELPGIRGLCTQVTAFLDEPALRRRLGDLSAAGFDGIAFVGVPRTMNDGEGHGVAPTDALSMFADLVPNRGAILIPTRDGEQGRFEFKCERGATYGMTQLLYSDAIVGFLREFARRTDHRPEILLSFGFVPKLEAKVGLINWLIQDPGNPAVAAEQEFVRRLAGLEPADKRKLMVDLYKRVIDGVADLGFPLSVHLEATYGVSVPAFETFAEMLAYWSPGQG
Km (purified protein [1]): 16 ± 3 µM
kcat (purified protein [1]): 540 ± 23 min⁻¹
Km (purified protein [2]): 160 ± 62 µM
kcat (purified protein [2]): 590 ± 85 min⁻¹

B2: hMfr (Mycolicibacterium hassiacum DSM 44199; E9Q) (protein)
chain: MTLNTIALQLVPPNSDGPDGGREQAVEDARKVLRCAAETGLAGRIGHVMIPGMIEEDPDRPIPMKPKMDVLDFWTIIRPELPGIRGLCTQVTAFLDEPALRRRLGDLSAAGFDGIAFVGVPRTMNDGEGHGVAPTDALSMFADLVPNRGAILIPTRDGEQGRFEFKCERGATYGMTQLLYSDAIVGFLREFARRTDHRPEILLSFGFVPKLEAKVGLINWLIQDPGNPAVAAEQEFVRRLAGLEPADKRKLMVDLYKRVIDGVADLGFPLSVHLEATYGVSVPAFETFAEMLAYWSPGQG
Km (purified protein [1]): 44 ± 13 µM
kcat (purified protein [1]): 1.1 ± 0.1 min⁻¹
Km (purified protein [2]): 250 ± 59 µM
kcat (purified protein [2]): 1.3 ± 0.1 min⁻¹
